Measured values from patent US20230272110A1 (LAVA THERAPEUTICS N V, published 2023).

Key:
[1] = target: T1, human PSMA on PSMA-positive prostate cancer cells (LNCaP, 22Rv1, VCaP, patient-derived tumor cells) (human, UniProt Q04609 1-750); experiment: cell-based or functional assay
[2] = target: T1, human PSMA on PSMA-positive prostate …; experiment: FACS on PSMA-positive LNCaP cells, detection with polyclonal anti-human IgG
Description: To test the binding of the molecule to PSMA, a concentration range of antibody was tested for binding to the PSMA positive prostate cancer cell line LNCaP and to the antigen negative cell line PC-3. Detection was performed with a polyclonal anti-human IgG antibody.

[3] = target: T1, human PSMA on PSMA-positive prostate …; experiment: cell-based or functional assay; remark: listed apart in the source
[4] = target: T1, human PSMA on PSMA-positive prostate …; experiment: cell-based or functional assay; remark: listed apart in the source
[5] = target: recombinant human PSMA, biotinylated (hPSMA) (human, UniProt Q04609 44-750, biotinylated (site not stated)); experiment: BLI, biotinylated hPSMA on streptavidin biosensors, antibody as analyte 3.125-200 nM; mean of n = 3, SD 1.24E-09
Sequence of recombinant human PSMA, biotinylated (hPSMA) (Q04609 44-750 limits assumed): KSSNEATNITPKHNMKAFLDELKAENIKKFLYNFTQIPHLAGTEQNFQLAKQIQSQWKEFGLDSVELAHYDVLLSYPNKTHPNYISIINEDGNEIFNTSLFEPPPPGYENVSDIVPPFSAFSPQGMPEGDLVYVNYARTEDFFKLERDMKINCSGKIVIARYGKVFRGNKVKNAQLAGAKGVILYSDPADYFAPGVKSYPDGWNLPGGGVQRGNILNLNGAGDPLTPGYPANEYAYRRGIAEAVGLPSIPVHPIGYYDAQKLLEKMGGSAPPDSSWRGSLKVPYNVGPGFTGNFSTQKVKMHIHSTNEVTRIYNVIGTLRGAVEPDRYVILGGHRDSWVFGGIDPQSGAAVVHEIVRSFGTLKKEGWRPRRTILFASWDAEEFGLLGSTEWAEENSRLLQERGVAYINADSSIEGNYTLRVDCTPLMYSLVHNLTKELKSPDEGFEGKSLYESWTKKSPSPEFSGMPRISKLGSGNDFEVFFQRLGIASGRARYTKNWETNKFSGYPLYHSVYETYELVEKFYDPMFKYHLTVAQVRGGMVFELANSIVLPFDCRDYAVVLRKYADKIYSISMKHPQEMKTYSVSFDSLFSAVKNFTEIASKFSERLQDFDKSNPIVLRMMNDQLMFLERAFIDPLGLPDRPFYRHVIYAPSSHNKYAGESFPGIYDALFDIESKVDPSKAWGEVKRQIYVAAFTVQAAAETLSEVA

T1 sequence (Q04609 whole entry): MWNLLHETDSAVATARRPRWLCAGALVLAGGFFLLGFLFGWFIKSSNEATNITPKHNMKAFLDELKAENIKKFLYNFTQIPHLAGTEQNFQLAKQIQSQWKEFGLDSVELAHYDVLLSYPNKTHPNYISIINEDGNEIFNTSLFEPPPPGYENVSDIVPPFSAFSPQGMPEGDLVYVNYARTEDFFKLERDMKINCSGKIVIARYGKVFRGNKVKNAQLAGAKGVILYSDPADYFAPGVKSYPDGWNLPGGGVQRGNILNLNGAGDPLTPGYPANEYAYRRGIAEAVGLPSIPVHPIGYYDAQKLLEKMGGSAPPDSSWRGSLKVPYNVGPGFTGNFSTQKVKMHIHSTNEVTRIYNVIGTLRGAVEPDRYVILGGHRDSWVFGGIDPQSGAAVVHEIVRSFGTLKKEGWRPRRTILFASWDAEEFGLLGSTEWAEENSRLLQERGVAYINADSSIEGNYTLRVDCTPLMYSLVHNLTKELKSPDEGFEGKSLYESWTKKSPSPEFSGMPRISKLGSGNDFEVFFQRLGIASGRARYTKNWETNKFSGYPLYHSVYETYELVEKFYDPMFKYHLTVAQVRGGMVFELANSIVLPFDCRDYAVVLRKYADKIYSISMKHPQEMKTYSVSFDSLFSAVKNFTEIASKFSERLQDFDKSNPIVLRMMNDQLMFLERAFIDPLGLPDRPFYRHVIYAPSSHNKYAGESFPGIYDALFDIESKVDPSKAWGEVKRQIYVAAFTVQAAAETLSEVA

| EC50 [2] | Mean EC50, degranulation (CD107a) after 4 hours, 22Rv1, E:T 1:1 [3] | Mean EC50, degranulation (CD107a) after 4 hours, LNCaP, E:T 1:1 [3] | Mean EC50, degranulation (CD107a) after 4 hours, VCaP, E:T 1:1 [3] | Kd [5] | Binder | Mean EC50, Vγ9Vδ2-T cell cytotoxicity of LNCaP cells, 24 h, E:T 1:1 [1] | Mean EC50, Vγ9Vδ2-T cell cytotoxicity of LNCaP cells, 24 h, E:T 1:10 [1] | Mean EC50, cytotoxicity after 24 hours (CytoTox-Glo), 22Rv1, E:T 1:1 [3] | Mean EC50, cytotoxicity after 24 hours (CytoTox-Glo), LNCaP, E:T 1:1 [3] | Mean EC50, cytotoxicity after 24 hours (CytoTox-Glo), VCaP, E:T 1:1 [3] | EC50, Vγ9Vδ2 T cell mediated cytotoxicity of LNCaP cells, 24 h, E:T 1:1 [4] | EC50 for cytotoxicity, LNCaP target cells, 24 h, 7AAD in FACS, E:T 1:1 [4] |
| --- | --- | --- | --- | --- | --- | --- | --- | --- | --- | --- | --- | --- |
| 7.3 nM | 0.029 nM | 0.016 nM | 0.028 nM | 31.6 nM | LV1050-Fc x 5C8var1-Fc (bispecific antibody, V domains shown, Knob-into-hole heterodimer of two VHH-Fc chains; also called 5C8var1-Fc x LV1050-Fc; lead bispecific antibody) V domain 1: EVQLVESGGGLVQPGGSLRLSCAASRFMISEYSMHWVRQAPGKGLEWVSTINPAGTTDYADSVKGRFTISRDNAKNTLYLQMNSLRAEDTAVYYCDGYGYRGQGTQVTVSS V domain 2: EVQLLESGGGSVQPGGSLRLSCAASGRPFSNYAMSWFRQAPGKEREFVSAISWSGGSTSYADSVKGRFTISRDNSKNTLYLQMNSLRAEDTAVYYCAAQFSGADYGFGRLGIRGYEYDYWGQGTQVTVSS | 0.017 nM | 0.0099 nM | 0.013 nM | 0.017 nM | 0.015 nM | 0.0105 nM | 0.0094 nM |
|  |  |  |  |  | LV1044-5C8 (bispecific antibody) EVQLVESGGGLVQPGGSLTLSCAASRFMISEYSMHWVRQAPGKGLEWVSTINPAGTTDYAESVKGRFTISRDNAKNTLYLQMNSLKPEDTAVYYCDGYGYRGQGTQVTVSSGGGGSEVQLVESGGGLVQAGGSLRLSCAASGRPFSNYAMGWFRQAPGKEREFVAAISWSGGSTSYADSVKGRFTISRDNAKNTVYLQMNSPKPEDTAIYYCAAQFSGADYGFGRLGIRGYEYDYWGQGTQVTVSS |  |  |  |  |  | 0.0016 nM | 0.0019 nM |
|  |  |  |  |  | LV1050-5C8var1 (bispecific antibody) EVQLVESGGGLVQPGGSLRLSCAASRFMISEYSMHWVRQAPGKGLEWVSTINPAGTTDYADSVKGRFTISRDNAKNTLYLQMNSLRAEDTAVYYCDGYGYRGQGTQVTVSSGGGGSEVQLLESGGGSVQPGGSLRLSCAASGRPFSNYAMSWFRQAPGKEREFVSAISWSGGSTSYADSVKGRFTISRDNSKNTLYLQMNSLRAEDTAVYYCAAQFSGADYGFGRLGIRGYEYDYWGQGTQVTVSSAAAEPEA |  |  |  |  |  | 0.0022 nM | 0.0019 nM |
